# Measurements published in the supplement of paper PMC12764529.
# ± gives the half width of the 95% confidence interval.
# Legend:
# [1] = folding stability dG unfold from trypsin proteolysis; higher = more stable
# Procedure, shortened: (§1)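 Digests were run with trypsin and chymotrypsin at 11 concentrations in threefold dilutions, plus a no-protease condition, on designed mini-proteins in a PA-tagged cDNA display construct. The mini-proteins were under 80 residues, had no cysteine, and were kept only when AlphaFold2 dimer inter-PAE was above 15. After sequencing, Bayesian fitting of the counts gave K50, from which unfolding free energy was derived against a sequence-predicted unfolded-state K50 and a shared folded-state K50, per protease or combined.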
# [2] = folding stability dG unfold from chymotrypsin proteolysis; higher = more stable
# Procedure, shortened: as §1
# [3] = folding stability dG unfold (combined trypsin and chymotrypsin); higher = more stable
# Procedure, shortened: as §1
sequence,measurement,setting,value
SAGGSAGGSAGFFIRIEPPNGEKVHFPMPPNQLPELAEEFPGLKIDDIDEGNGWIWVEVPSAGGSAGGSAGG [r17_22_TrROS],folding stability dG unfold,[1],-0.0744 ± 0.23 kcal/mol
same,folding stability dG unfold,[2],-0.453 ± 0.47 kcal/mol
same,folding stability dG unfold,[3],-0.264 ± 0.35 kcal/mol
SAGGSAGGSAGFNFDIELERDPNGRARVMIKIPLPNGKHYIVIYEFDPDSGKMETKIFPVSAGGSAGGSAGG [r11_107_TrROS],folding stability dG unfold,[1],3.07 ± 0.086 kcal/mol
same,folding stability dG unfold,[2],3.82 ± 0.12 kcal/mol
same,folding stability dG unfold,[3],3.43 ± 0.19 kcal/mol
SAGGSAGGSAGGAPNAPKPVLVFAEVTVTSVEYDPETGELRIEVELPDGGEKLTFRLPLSAGGSAGGSAGGS [r10_427_TrMRF],folding stability dG unfold,[1],1.93 ± 0.031 kcal/mol
same,folding stability dG unfold,[2],2.44 ± 0.031 kcal/mol
same,folding stability dG unfold,[3],2.23 ± 0.054 kcal/mol
SAGGSAGGSAGGAPPGAKFTVKVPSNDNVIPGSVTLGPDGGTVFHFDGPVPEGDYEIVLESAGGSAGGSAGG [r7_627_JUSTAS],folding stability dG unfold,[1],-1.63 ± 0.33 kcal/mol
same,folding stability dG unfold,[2],-0.362 ± 0.17 kcal/mol
same,folding stability dG unfold,[3],-0.643 ± 0.15 kcal/mol
SAGGSAGGSAGGAPTIRVELRHPNGERIELEFPADADVIFVPEDYEITRIEIVPADDPASAGGSAGGSAGGS [r10_571_TrMRF],folding stability dG unfold,[1],1.51 ± 0.062 kcal/mol
same,folding stability dG unfold,[2],1.837 ± 0.018 kcal/mol
same,folding stability dG unfold,[3],1.69 ± 0.052 kcal/mol
SAGGSAGGSAGGAVFKTPDGTTLTLLPDGTVVVTEYSPDGVPLRVETRTMTAADIAAAASAGGSAGGSAGGS [r10_874_JUSTAS],folding stability dG unfold,[1],-0.022 ± 0.12 kcal/mol
same,folding stability dG unfold,[2],1.5 ± 0.088 kcal/mol
same,folding stability dG unfold,[3],1.01 ± 0.085 kcal/mol
SAGGSAGGSAGGAVTTNKDVPLPGPFSIGTVTVSPPDPATPVVTFNSYEGNGPVTLTVPVSAGGSAGGSAGG [r11_1013_JUSTAS],folding stability dG unfold,[1],1.24 ± 0.015 kcal/mol
same,folding stability dG unfold,[2],0.321 ± 0.11 kcal/mol
same,folding stability dG unfold,[3],0.921 ± 0.04 kcal/mol
SAGGSAGGSAGGDENDYYMVEIPIWRRNENGGWEPIFPIPIMVPKGAPKDVAKDILNNLSAGGSAGGSAGGS [r10_470_TrROS],folding stability dG unfold,[1],0.361 ± 0.1 kcal/mol
same,folding stability dG unfold,[2],0.324 ± 0.12 kcal/mol
same,folding stability dG unfold,[3],0.382 ± 0.085 kcal/mol
SAGGSAGGSAGGDGEDGKPKPEPKIKIKIEVESVRNPNGFLIVTYRIPALGIWITIIINSAGGSAGGSAGGS [r10_160_TrROS],folding stability dG unfold,[1],3.03 ± 0.15 kcal/mol
same,folding stability dG unfold,[2],4.91 ± 0.24 kcal/mol
same,folding stability dG unfold,[3],4.6 ± 0.39 kcal/mol
SAGGSAGGSAGGDGIVVPVDEAVGLIKELGLKVVGVFEHPGGPPAVLFELPDGRLLLAESAGGSAGGSAGGS [r10_210_TrMRF],folding stability dG unfold,[1],0.381 ± 0.045 kcal/mol
same,folding stability dG unfold,[2],0.792 ± 0.042 kcal/mol
same,folding stability dG unfold,[3],0.603 ± 0.047 kcal/mol
SAGGSAGGSAGGDITIDTEQMPNGWHTVKVRLPNGKPIAPVPMPPGMTPEEAVKRALDRLSAGGSAGGSAGG [r7_444_TrROS],folding stability dG unfold,[1],0.0871 ± 0.065 kcal/mol
same,folding stability dG unfold,[2],-0.407 ± 0.25 kcal/mol
same,folding stability dG unfold,[3],0.0336 ± 0.12 kcal/mol
SAGGSAGGSAGGDKNDLSPGATISTYTNPGSFTVTLPTGETVTLPKTVTTTVTFFDSTNSAGGSAGGSAGGS [r10_643_JUSTAS],folding stability dG unfold,[1],0.254 ± 0.072 kcal/mol
same,folding stability dG unfold,[2],0.104 ± 0.14 kcal/mol
same,folding stability dG unfold,[3],0.227 ± 0.08 kcal/mol
SAGGSAGGSAGGDLLRDLPGLELRIETVTVTERYFDEDGELVEEREETVTRIELRRPGEESAGGSAGGSAGG [r7_614_TrROS_Hall],folding stability dG unfold,[1],0.383 ± 0.2 kcal/mol
same,folding stability dG unfold,[2],2.15 ± 0.1 kcal/mol
same,folding stability dG unfold,[3],1.75 ± 0.2 kcal/mol
SAGGSAGGSAGGDNLMIMIEIEPVKTETRMDPDGKMETRTEYRIKIEIIPPPNPDDPENNSAGGSAGGSAGG [r7_523_TrROS],folding stability dG unfold,[1],1.55 ± 0.11 kcal/mol
same,folding stability dG unfold,[2],2.63 ± 0.049 kcal/mol
same,folding stability dG unfold,[3],2.28 ± 0.17 kcal/mol
SAGGSAGGSAGGDNRLPIPVKTPVVVVPADEAREEIRATLPPDAYRVEEERGDYVTISLGSAGGSAGGSAGG [r7_670_JUSTAS],folding stability dG unfold,[1],0.481 ± 0.044 kcal/mol
same,folding stability dG unfold,[2],1.05 ± 0.022 kcal/mol
same,folding stability dG unfold,[3],0.847 ± 0.049 kcal/mol
SAGGSAGGSAGGDNWKIGIDIIPIRFTFEMTMKDGGKPRPMRMEFEVTIIVIKITPPGDSAGGSAGGSAGGS [r10_118_TrROS],folding stability dG unfold,[1],3.5 ± 0.1 kcal/mol
same,folding stability dG unfold,[2],5.1 ± 0.079 kcal/mol
same,folding stability dG unfold,[3],4.89 ± 0.11 kcal/mol
SAGGSAGGSAGGDPDERIPIKIEMWHPNKPYEHEFPVGMDLSDIADPFASDGFMVRIEISAGGSAGGSAGGS [r10_540_TrROS],folding stability dG unfold,[1],0.795 ± 0.058 kcal/mol
same,folding stability dG unfold,[2],1.26 ± 0.07 kcal/mol
same,folding stability dG unfold,[3],1.05 ± 0.14 kcal/mol
SAGGSAGGSAGGDPNWVTVTIMIKVPPGDKPIEIEIPNGIKVEYYPFPDDGYLIFKITVRSAGGSAGGSAGG [r7_796_TrROS],folding stability dG unfold,[1],2.78 ± 0.16 kcal/mol
same,folding stability dG unfold,[2],3.11 ± 0.16 kcal/mol
same,folding stability dG unfold,[3],3.02 ± 0.23 kcal/mol
